According to US20160291016A1 (CHU SAINTE JUSTINE, published 2016):

Assays:
[1] = target: T1, integrin α5 (OPN receptor subunit) of mouse osteoblasts (mouse, UniProt P11688 45-1053); assay: co-immunoprecipitation from mouse osteoblast lysates, Western blot
T1 construct: Only the subunit is named; also called α5 integrin
Description: (§1) Then, was examined whether the interaction of OPN with the receptor is influenced by PTPμ deficiency. […] In contrast, levels of CD44 in OPN immunoprecipitates were similar in WT and PTPμ^{-/-} osteoblasts.

[2] = target: T2, integrin β1 (OPN receptor subunit) of mouse osteoblasts (mouse, UniProt P09055 21-798); assay: as above
T2 construct: Only the subunit is named; also called β1 integrin
Description: as §1

T2 sequence (chain, as listed by the source limits assumed, chain 1 of 2): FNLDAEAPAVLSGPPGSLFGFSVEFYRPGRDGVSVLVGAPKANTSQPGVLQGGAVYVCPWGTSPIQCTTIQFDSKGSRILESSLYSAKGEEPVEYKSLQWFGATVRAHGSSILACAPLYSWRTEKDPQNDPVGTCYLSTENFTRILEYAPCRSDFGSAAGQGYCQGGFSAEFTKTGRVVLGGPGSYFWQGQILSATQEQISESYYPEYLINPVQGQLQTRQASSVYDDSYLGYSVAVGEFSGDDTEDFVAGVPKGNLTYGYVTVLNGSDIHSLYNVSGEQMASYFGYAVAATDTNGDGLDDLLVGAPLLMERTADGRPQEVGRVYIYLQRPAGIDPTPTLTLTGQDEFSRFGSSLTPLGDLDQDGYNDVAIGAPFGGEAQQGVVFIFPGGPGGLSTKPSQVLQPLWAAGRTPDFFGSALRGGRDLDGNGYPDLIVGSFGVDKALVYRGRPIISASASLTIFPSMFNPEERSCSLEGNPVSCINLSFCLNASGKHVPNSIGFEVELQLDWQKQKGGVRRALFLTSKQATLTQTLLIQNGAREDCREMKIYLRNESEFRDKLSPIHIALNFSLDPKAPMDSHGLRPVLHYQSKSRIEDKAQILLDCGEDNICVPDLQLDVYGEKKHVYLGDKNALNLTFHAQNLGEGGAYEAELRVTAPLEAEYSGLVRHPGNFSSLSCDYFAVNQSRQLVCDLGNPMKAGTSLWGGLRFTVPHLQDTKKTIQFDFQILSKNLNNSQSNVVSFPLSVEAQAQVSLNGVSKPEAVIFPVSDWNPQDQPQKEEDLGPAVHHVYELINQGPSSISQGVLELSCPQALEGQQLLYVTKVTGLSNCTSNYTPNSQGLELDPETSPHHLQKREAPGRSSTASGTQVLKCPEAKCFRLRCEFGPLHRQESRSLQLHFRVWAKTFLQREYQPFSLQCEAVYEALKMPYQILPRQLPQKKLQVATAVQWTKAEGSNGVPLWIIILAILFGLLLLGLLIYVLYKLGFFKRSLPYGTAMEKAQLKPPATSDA
T2 sequence (P09055 21-798 limits assumed, chain 2 of 2): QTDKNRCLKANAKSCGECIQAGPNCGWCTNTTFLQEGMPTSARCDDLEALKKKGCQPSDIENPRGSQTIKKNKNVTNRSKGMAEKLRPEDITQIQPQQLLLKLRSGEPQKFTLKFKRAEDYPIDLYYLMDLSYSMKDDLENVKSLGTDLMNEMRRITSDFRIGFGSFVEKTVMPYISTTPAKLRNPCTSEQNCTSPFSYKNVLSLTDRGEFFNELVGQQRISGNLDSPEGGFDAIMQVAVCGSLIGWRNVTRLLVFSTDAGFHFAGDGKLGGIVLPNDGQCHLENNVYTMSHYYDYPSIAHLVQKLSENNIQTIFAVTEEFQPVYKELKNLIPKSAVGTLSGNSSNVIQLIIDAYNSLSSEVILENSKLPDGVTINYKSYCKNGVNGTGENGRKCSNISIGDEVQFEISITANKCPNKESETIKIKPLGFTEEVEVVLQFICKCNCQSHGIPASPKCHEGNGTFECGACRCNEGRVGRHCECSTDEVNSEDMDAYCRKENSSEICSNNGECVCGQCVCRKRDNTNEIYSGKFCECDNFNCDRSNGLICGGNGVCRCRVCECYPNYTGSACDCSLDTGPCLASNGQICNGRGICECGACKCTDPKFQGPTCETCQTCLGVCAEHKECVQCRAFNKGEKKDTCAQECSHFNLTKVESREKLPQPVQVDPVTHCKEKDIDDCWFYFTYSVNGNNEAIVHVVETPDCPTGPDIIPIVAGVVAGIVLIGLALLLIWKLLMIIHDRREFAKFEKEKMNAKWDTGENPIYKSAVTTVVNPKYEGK
T1 sequence (P11688 45-1053 limits assumed, chain 1 of 2): as the sequence (chain, as listed by the source limits assumed, chain 1 of 2) above
T1 sequence (chain, as listed by the source limits assumed, chain 2 of 2): as the sequence (P09055 21-798 limits assumed, chain 2 of 2) above

B1: osteopontin (OPN), endogenous, in lysates of mouse osteoblasts (ligand)
chain: not shown
notes: Endogenous protein detected by Western blot with an anti-OPN antibody after immunoprecipitation of its receptors
For B1, the “fold change of the level in the immunoprecipitates, PTPµ-/- osteoblasts against WT osteoblasts” value [1] was over 30 fold and the “fold change of the level in the immunoprecipitates, PTPµ-/- osteoblasts against WT osteoblasts” value [2] was over 30 fold.
